In data set [1] the target is T1, Lys*-Ala-Gly-Leu-Leu-Cys (SEQ ID NO:32).
T1 chain: KAGLLC
In words: peptide cleavage kinetics by HPLC, 10 nM activated MMP; the filing calls Km 'affinity or binding strength'.

The target of data set [2] is T2, Lys*-Pro-Ala-Gly-Leu-Leu-Gly-Cys (SEQ ID NO:2).
T2 chain: KPAGLLGC
The data set is described as above.

In data set [3] the target is T3, Lys*-Gly-Leu-Cys (SEQ ID NO:33).
T3 chain: KGLC
Described as above.

In data set [4] the target is T1, Lys*-Ala-Gly-Leu-Leu-Cys (SEQ ID NO:32).
For data set [5], the target named is T2, Lys*-Pro-Ala-Gly-Leu-Leu-Gly-Cys (SEQ …).
The target of data set [6] is T4, Lys*-Pro-Ala-Gly-Leu-Leu-Gly-Cys (SEQ ID NO:2), pendant in PEG(8000)DA hydrogel and complexed with Pt (not fully specified).
T4 chain: KPAGLLGC

Data set [7] addresses T3, Lys*-Gly-Leu-Cys (SEQ ID NO:33).

B1: matrix metalloprotease-2 (MMP-2), activated (protein)
chain: YNFFPRKPKWDKNQITYRIIGYTPDLDPETVDDAFARAFQVWSDVTPLRFSRIHDGEADIMINFGRWEHGDGYPFDGKDGLLAHAFAPGTGVGGDSHFDDDELWTLGEGQVVRVKYGNADGEYCKFPFLFNGKEYNSCTDTGRSDGFLWCSTTYNFEKDGKYGFCPHEALFTMGGNAEGQPCKFPFRFQGTSYDSCTTEGRTDGYRWCGTTEDYDRDKKYGFCPETAMSTVGGNSEGAPCVFPFTFLGNKYESCTSAGRSDGKMWCATTANYDDDRKWGFCPDQGYSLFLVAAHEFGHAMGLEHSQDPGALMAPIYTYTKNFRLSQDDIKGIQELYGASPDIDLGTGPTPTLGPVTPEICKQDIVFDGIAQIRGEIFFFKDRFIWRTVTPRDKPMGPLLVATFWPELPEKIDAVYEAPQEEKAVFFAGNEYWIYSASTLERGYPKPLTSLGLPPDVQRVDAAFNWSKNKKTYIFAGDKFWRYNEVKKKMDPGFPKLIADAWNAIPDNLDAVVDLQGGGHSYFFKGAYYLKLENQSLKSVKFGSIKSDWLGC
One may read the Km as the substrate concentration at which the rate is half of its maximum. For orientation: Vmax means the rate approached at saturating substrate. By kcat is commonly meant the maximal rate divided by the concentration of active sites. With B1, the results for the Km in data set [1], in data set [2] and in data set [3] were 1400 µM, 1000 µM and 81 µM, respectively. For the same protein, the Kcat/Km stood at 171 M⁻¹ s⁻¹ in data set [4], 10700 M⁻¹ s⁻¹ in data set [5] and 439 M⁻¹ s⁻¹ in data set [7]. Moreover, the Vmax in data set [4] came out at 6.02e-09 M/s; in data set [5], 2.7e-07 M/s; in data set [7], 8.8e-10 M/s. Also, the kcat in data set [4] turned out to be 0.24 s⁻¹; in data set [5] it was 10.7 s⁻¹; in data set [7], 0.035 s⁻¹. Further, the “release of cleaved fragment from the PEG(8000)DA hydrogels” value in data set [6] was “the addition of MMP-2 and MMP-9 showed a significantly higher release of cleaved fragment from the PEG(8000)DA hydrogels compared to the control”.

The record behind these values is patent publication US20080131510.
